Data reported in paper PMC4720288.

Target: human MALT1_(Casp-Ig3)(338–719) (human) (UniProt Q9UDY8)
Test: crystal structure; in-house X-ray structure of apo MALT1_(Casp-Ig3), data not published

stoichiometry N: 2
Substance: human MALT1_(Casp-Ig3)(338–719) (from UniProt Q9UDY8 338-719) (domain or fragment)
